# B1: EB1c-GFP (C-terminal domain of human EB1, Asp191-Tyr268, C-terminally EGFP-His-tagged) (domain or fragment, UniProt Q15691 191-268, looked up)
# chain: DEAAELMQQVNVLKLTVEDLEKERDFYFGKLRNIELICQENEGENDPVLQRIVDILYATDEGFVIPDEGGPQEEQEEY
# notes: Calculated monomer mass 38.3 kDa; also called C-terminal domain of EB1; not shown: EGFP, C-terminal, kept
# B2: EB1c-GFP[A206K] (domain or fragment, human, UniProt Q15691 191-268, looked up)
# chain: DEAAELMQQVNVLKLTVEDLEKERDFYFGKLRNIELICQENEGENDPVLQRIVDILYATDEGFVIPDEGGPQEEQEEY
# notes: As m3, but Ala206 of the EGFP tag is mutated to lysine; the EB1c part is unchanged; not shown: EGFP with A206K, C-terminal, kept
# B3: EB3c-GFP (C-terminal domain of human EB3, Ala200-Tyr281, C-terminally EGFP-His-tagged) (domain or fragment, UniProt Q9UPY8 200-281, looked up)
# chain: AQILELNQQLVDLKLTVDGLEKERDFYFSKLRDIELICQEHESENSPVISGIIGILYATEEGFAPPEDDEIEEHQQEDQDEY
# notes: Calculated monomer mass 38.7 kDa; also called C-terminal domain of EB3; not shown: EGFP, C-terminal, kept
# Legend:
# [1] = molecular target: the molecule itself; test: AUC; absorption sedimentation equilibrium at 37°C; 1 to 60 µM (monomer equivalents); 14'000, 17'000 and 26'000 rpm; buffer as for velocity runs but without BSA; dimer to monomers
# [2] = molecular target: the molecule itself; test: AUC; fluorescence sedimentation velocity (GFP signal at 488 nm), 22°C; dilution series from about 500 to about 0.5 nM (monomer equivalents); 20 mM Tris-HCl pH 7.5, 300 mM NaCl, 0.2 mg/ml BSA, 2 mM DTT or 0.1 mM TCEP; samples incubated 16 hours at 22°C; dimer to monomers; apparent Kd
# [3] = molecular target: the molecule itself; test: SEC-MALS; Superdex 200 10/30 with in-line multi-angle light scattering; 1 to 4 mg/ml injected in 100 µl (about 1 µM at the peak); 20 mM Tris-HCl pH 7.5, 300 mM NaCl, 2 mM DTT; room temperature; single experiments
protein,measurement,setting,value
B1,stoichiometry N,[1],2
B2,stoichiometry N,[2],2
B3,Kd,[2],2 nM
same,stoichiometry N,[3],2

# — publication PMC3765442 (PLoS ONE, 2013)
